In PMC10810746:

Biological target: RbcL (large subunit of form I ribulose 1,5-bisphosphate carboxylase oxygenase) (Synechococcus sp. PCC 7335)
Assay: cryo-EM structure; single-particle cryo-EM of form I Rubisco found in the same fraction; 2.35 Å, D4 symmetry

“RbcL (large subunit of form I ribulose 1,5-bisphosphate carboxylase oxygenase) (enzyme)” gave a stoichiometry N of 8.
